This is an account of results in publication PMC12119571, “The Porphyromonas gingivalis RNA-binding protein is required for growth in high levels of zinc and persistence with host cells”.

Series [1] deals with RbpPg1 (Halo) (Porphyromonas gingivalis W83). The experiment in a line: pull-down of total RNA, RNA-seq. The note with it: EMSA: LightShift Chemiluminescent RNA EMSA kit, on ice 30 min, TBE 10% gel at 4 C (buffer in Suppl. Tables 3-5, not in the material); His pulldown: 1 h at 4 C …. For orientation: In EMSA bound probe runs differently from free probe, usually more slowly.
Series [2] concerns the target T1, RbpPg1 (Porphyromonas gingivalis W83) (UniProt Q7MWI3).
T1 sequence: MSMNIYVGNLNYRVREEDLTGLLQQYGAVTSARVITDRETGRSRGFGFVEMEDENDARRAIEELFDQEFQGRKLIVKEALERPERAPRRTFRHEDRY
The series can be described thus: pull-down of total RNA, RNA-seq. The note with it: EMSA: LightShift Chemiluminescent RNA EMSA kit, on ice 30 min, TBE 10% gel at 4 C (buffer in Suppl. Tables 3-5, not in the material); His pulldown: 1 h at 4 C ….

Another series has as its target T2, RbpPg1 (Porphyromonas gingivalis W83, UniProt Q7MWI3 1-97).
T2 sequence: T1 sequence
The experiment in a line: EMSA; shift reduced by unlabeled IRE RNA; EMSA: LightShift Chemiluminescent RNA EMSA kit, on ice 30 min, TBE 10% gel at 4 C (buffer in Suppl. Tables 3-5, not in the material); His pulldown: 1 h at 4 C. To be noted: protein: recombinant; tags: His-tag (pET30a, NcoI/XhoI); label: 3' biotin; IRE stem loop (hairpin).

Take PG2090 zinc efflux transcript: the figures for the binding signal (fold enrichment over HU-beta) in series [1] and in series [2] were 639 and 71.3, respectively. Take UCCUGCUUCAACAGUGCUUGGACGGAAC (structured_RNA) [IRE control RNA (LightShift kit)]: the binding result in the series with RbpPg1 is “binds”.
